Reference: PMC12439581 (mAbs, 2025)
Substitutions are numbered along the chain they refer to. In names and notes the source's numbering stands. Several values for one entry are separate records, joined by “and”; a condition that tells them apart may be missing. Equal values may be shown once.

B1: D11_Y49S scFv (scFv, V domains shown)
VH: QVQLVQSGAEVKKPGSSVKVSCKASGGTFSSYAISWVRQAPGQGLEWMGGIIPIFGTANYAQKFQGRVTITADESTSTAYMELRSLRSDDTAVYYCARDNLGYCSGGSCYSDYYYYYMDVWGQGTLVTVSS
VL: NFMLTQPRSVSESPGKTVTISCTRSSGSIGSDYVHWYQQRPGSSPTTVISEDNQRPSGVPDRFSGSIDSSSNSASLTISGLKTEDEADYYCQSYDRSNHEVVFGGGTKLTVL
notes: source: E. coli BL21(DE3)
B2: D11_E50A scFv (scFv, V domains shown)
VH: B1 VH
VL: B1 VL with S50Y, E51A
notes: source: E. coli BL21(DE3)
B3: A01 scFv (scFv, V domains shown)
VH: B1 VH
VL: SYELTQPPSVSVAPGRTATITCEGDNIGQQIVHWYQQKPGQAPVAVISSDSDRPSGIPERFSGSNSGNTATLTISRVEAGDEADYYCQVWDSGSDHVVFGGGTKVTVL
B4: D11 scFv (scFv, V domains shown)
VH: B1 VH
VL: B1 VL with S50Y
B5: D11_Y49A scFv (scFv, V domains shown)
VH: B1 VH
VL: B1 VL with S50A
notes: source: E. coli BL21(DE3)
B6: 368_01_C05 Fab with the CDR-L3 glycosylation site at Asn95 removed (Fab, V domains shown)
VH: B1 VH
VL: B1 VL with R8H, G30A, D32T, S44A, S50Y, R96S, N98S, H99G, E100S
notes: also called parent mAb; parental mAb
B7: G09 Fab (Fab, V domains shown)
VH: B1 VH
VL: SYELTQPPSVSVAPGRTATITCEGDNIGQQIVHWYRQKSDQAPVVVVYDGSRRPSGIPERFSGSNSGNTATLTISRVEAGDEADYYCQVWDITSDHVVFGGGTQLTVL
B8: A04 Fab (Fab, V domains shown)
VH: B1 VH
VL: SYELTQPPSMSVAPGQTARITCGGDYIGGESVHWYQQKPGRAPVAVVYDDTHRPSGIPERFSGANSGNTATLTISKVEAGDEADYYCQVWDVSSDHVVFGGGTKLTVL
B9: B11 Fab (Fab, V domains shown)
VH: B1 VH
VL: SYELTQPPSVSVAPGQTATITCGGHNIGSNIVHWYHQKPGQAPELVISHNTNRPSGIPERFSGSNSGSTATLTISRVEAVDEADYYCQVWDSSSEHVVFGGGTKVTVL
B10: A12 Fab (Fab, V domains shown)
VH: B1 VH
VL: B1 VL with R8H, I20F, S28R, G30V, S44A, S50Y, R96S, H99A, E100Y, L109V
B11: E01 Fab (Fab, V domains shown)
VH: B1 VH
VL: NFMLTQPRSVSESPGKTVTISCTRSSGSIGSDYVHWYQQRPGSSPTTVIYEDNRRPSGVPDRFSGSIASSANSASLTISGLRPEDEADYYCQSYDSTTNHVVFGGGTKVTVL
B12: A01 scFv with His34 (CDR-L1) substituted to alanine (scFv, V domains shown)
VH: B1 VH
VL: B3 VL with H33A
notes: also called A01-H34A; source: E. coli BL21(DE3), in culture supernatant
B13: A01 scFv with His95b (CDR-L3) substituted to alanine (scFv, V domains shown)
VH: B1 VH
VL: B3 VL with H96A
notes: also called A01-H95bA; source: E. coli BL21(DE3), in culture supernatant
B14: A01 scFv with C-terminal 6xHis-FLAG extension (scFv, V domains shown)
VH: B1 VH
VL: B3 VL
notes: also called original A01 scFv; source: E. coli BL21(DE3); culture supernatant (DELFIA); purified (HisTrap, SEC)
B15: D11 scFv with C-terminal 6xHis-FLAG extension (scFv, V domains shown)
VH: B1 VH
VL: B1 VL with S50Y
notes: also called original D11; source: E. coli BL21(DE3); culture supernatant (DELFIA); purified (HisTrap, SEC)
B16: D11 scFv with serine at position 32 (CDR-L1) and histidine at position 49 (FWR-2) (scFv, V domains shown)
VH: B1 VH
VL: B1 VL with Y33S, S50H
notes: also called D11-Y32S-Y49H (name built from the text: serine at position His32 of D11-Y32H-Y49H); source: E. coli BL21(DE3), in culture supernatant
B17: A01 Fab (Fab, V domains shown)
VH: B1 VH
VL: B3 VL
B18: B11 Fab (Fab, V domains shown)
VH: B1 VH
VL: B9 VL
B19: C05 Fab, parental mAb 368_01_C05, with the N-glycosylation site of CDR-L3 removed (C05-NS) (Fab, V domains shown)
VH: B1 VH
VL: B1 VL with R8H, G30A, D32T, S44A, S50Y, R96S, N98S, H99G, E100S
B20: A04 Fab (Fab, V domains shown)
VH: B1 VH
VL: B8 VL
B21: G09 Fab (Fab, V domains shown)
VH: B1 VH
VL: B7 VL
B22: A12 Fab (Fab, V domains shown)
VH: B1 VH
VL: B1 VL with R8H, I20F, S28R, G30V, S44A, S50Y, R96S, H99A, E100Y, L109V
B23: E01 Fab (Fab, V domains shown)
VH: B1 VH
VL: B11 VL

Target: T1, biotinylated α-cobratoxin from Naja kaouthia (Naja kaouthia, biotin through amine coupling (NHS-PEG4-Biotin), sites not stated)
T1 chain: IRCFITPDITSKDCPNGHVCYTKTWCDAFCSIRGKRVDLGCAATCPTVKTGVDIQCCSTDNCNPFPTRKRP
Assay: BLI
Conditions: both partners purified

First: B1
Second: B2
The Kd of the first is 3.2-fold lower: 48.8 nM for the first, 158 nM for the second.

B3 and B4 are within 1.5-fold of each other in Kd: 52.2 nM for the first, 44.4 nM for the second.

Work on B5 yielded a Kd of 68.8 nM.

B1 was tested, and the koff was 0.00195 s⁻¹ and 0.00416 s⁻¹.
With B2 the koff was 0.00469 s⁻¹ and 0.0134 s⁻¹.
B4 was tested, and the koff was 0.00177 s⁻¹ and 0.00189 s⁻¹.
B5 was tested, and the koff was 0.0018 s⁻¹ and 0.00355 s⁻¹.

B1 and B2 are within 1.5-fold of each other in kon: 40000 M⁻¹ s⁻¹ for the first, 29700 M⁻¹ s⁻¹ for the second.

B3 and B4 are within 1.5-fold of each other in kon: 43200 M⁻¹ s⁻¹ for the first, 39900 M⁻¹ s⁻¹ for the second.

Binder B5 has a kon of 26200 M⁻¹ s⁻¹.

target: T2, biotinylated α-cobratoxin from Naja kaouthia (Naja kaouthia, UniProt P01391); assay: BLI; conditions: both partners purified

B6: binds.
B7: binds.
B8: binds.
B9: binds.
B10: binds.
B11: binds.

target: biotinylated α-bungarotoxin from Bungarus multicinctus (Bungarus multicinctus, UniProt P60615); assay: BLI; conditions: both partners purified

B7: binds.
B8: binds.
B9: binds.

target: T2, biotinylated α-cobratoxin from Naja …; assay: DELFIA (dissociation-enhanced lanthanide fluorescence immunoassay); conditions: one partner purified

Going from B12 to B14, the “pH 7.4/pH 5.8 ratio of toxin remaining bound (TRF signal)” value rises from 1.6 to ~12.

B15 was tested, and the “pH 7.4/pH 5.8 ratio of toxin remaining bound (TRF signal)” value was ~1.3.

B13 was tested, and the “fold reduction of the pH 7.4/pH 5.8 ratio against the A01 scFv” value was ~3 fold.

Going from B14 to B15, the “pH 7.4/pH 5.8 ratio of toxin remaining bound (fold-difference)” value falls from ~13.4 fold to ~1.2 fold.

B16: binds.

Target: T1, biotinylated α-cobratoxin from Naja …
Assay: BLI
Conditions: both partners purified
Remark: another data set of the same source

B17 and B18 are within 1.5-fold of each other in kon: 44000 M⁻¹ s⁻¹ for the first, 59000 M⁻¹ s⁻¹ for the second.

B19 and B20 are within 1.5-fold of each other in kon: 51000 M⁻¹ s⁻¹ for the first, 62000 M⁻¹ s⁻¹ for the second.

B21 and B22 are within 1.5-fold of each other in kon: 71000 M⁻¹ s⁻¹ for the first, 55000 M⁻¹ s⁻¹ for the second.

Binder B23 has a kon of 54000 M⁻¹ s⁻¹.

Compared with B18, B19 is 12-fold higher in Kd: 5.7 ± 1.1 nM for the first, 71.2 ± 5.4 nM for the second.

B20 and B21 are within error of each other in Kd: 15.3 ± 14 nM for the first, 4.2 ± 2.8 nM for the second.

First: B22
Second: B23
The Kd of the first is 1.6-fold lower: 4.2 ± 0.9 nM for the first, 6.6 ± 0.9 nM for the second. The first binds more tightly here.

In the case of B19, the koff is reported as 0.00366 s⁻¹ and 0.00946 s⁻¹.
With B22 the koff was 0.00021 s⁻¹ and 0.00053 s⁻¹.

target: T3, biotinylated α-elapitoxin-Dpp2d from Dendroaspis polylepis (Dendroaspis polylepis (black mamba), UniProt C0HJD7); assay: BLI; […]; association at pH 7.4, dissociation at pH 7.4; 1:1 global fit, […]; conditions: both partners purified

B17 and B18 are within 1.5-fold of each other in kon: 84000 M⁻¹ s⁻¹ for the first, 69000 M⁻¹ s⁻¹ for the second.

Going from B19 to B20, the kon rises from 76000 M⁻¹ s⁻¹ to 161000 M⁻¹ s⁻¹ (2.1-fold).

B21 and B22 are within 1.5-fold of each other in kon: 156000 M⁻¹ s⁻¹ for the first, 140000 M⁻¹ s⁻¹ for the second.

For B23, the kon was 138000 M⁻¹ s⁻¹.

First: B18
Second: B19
The Kd of the first is 3.3-fold lower: 1.4 ± 0.1 nM for the first, 4.6 ± 0.47 nM for the second.

B20 and B21 are within error of each other in Kd: 0.6 ± 0.4 nM for the first, 1 ± 0.5 nM for the second.

B22 and B23 are within error of each other in Kd: 1.4 ± 1.2 nM for the first, 1.3 ± 0.7 nM for the second.

Going from B18 to B19, the koff rises from 9e-05 s⁻¹ to 0.00034 s⁻¹ (3.8-fold).

First: B20
Second: B21
The koff of the first is 1.7-fold lower: 9e-05 s⁻¹ for the first, 0.00015 s⁻¹ for the second.

B22 and B23 are within 1.5-fold of each other in koff: 0.00015 s⁻¹ for the first, 0.00014 s⁻¹ for the second.

target: biotinylated α-bungarotoxin from Bungarus multicinctus (Bungarus multicinctus); assay: as above; conditions: both partners purified

B22 and B23 are within 1.5-fold of each other in Kd: 202 ± 28.2 nM for the first, 271 ± 31.1 nM for the second.

Going from B22 to B23, the koff rises from 0.0093 s⁻¹ to 0.0173 s⁻¹ (1.9-fold).

B22 and B23 are within 1.5-fold of each other in kon: 21000 M⁻¹ s⁻¹ for the first, 23000 M⁻¹ s⁻¹ for the second.

target: T3, biotinylated α-elapitoxin-Dpp2d from …; assay: BLI; […]; association at pH 7.4, dissociation at pH 5.5; 1:1 global fit; conditions: both partners purified

Going from B17 to B18, the koff falls from 0.00295 s⁻¹ to 0.00049 s⁻¹ (6-fold).

Going from B19 to B20, the koff falls from 0.00072 s⁻¹ to 0.00024 s⁻¹ (3-fold).

B21 and B22 are within 1.5-fold of each other in koff: 0.00035 s⁻¹ for the first, 0.00036 s⁻¹ for the second.

With B23 the koff was 0.00049 s⁻¹.
